Entries after “also recorded” stand apart in the source; their conditions may differ.
Columns and labels:
[1] = system: VEGF-induced retinal vascular permeability; test: Evans blue assay after intravitreal co-injection with VEGF164; format: in vivo, mouse (C57BL/6J); settings: mouse eye, co-injected intravitreally with VEGF164 at 20-fold molar excess; for inhibition of VEGF-induced retinal vascular permeability (Evans blue-albumin): 24 h, VEGF-induced increase = 100%, mean ±SE
Procedure: (§1) Intravitreal injection to assess bioactivity on vascular permeability. C57BL/6J mice, 6-8 weeks of age, were cared for in accordance with the Association for Research in Vision and Opthalmology Statement for the Use of Animals in Ophthalmic and Vision Research. For anesthesia, each received intramuscularly 20 mg/kg ketamine, 20 mg/kg xylazine and 800 mg/kg urethane in 0.3-0.4 ml of phosphate buffered saline (PBS, 1.06 mM KH2PO4, 0.15 M NaCl and 3.00 mM Na2HPO4, pH 7.4). Under 10× magnification, 1 μl of murine VEGF164 (12.6 ng/μl in PBS; R&D Systems, Minneapolis, Minn.) was delivered through a 20° beveled glass pipette, with a tip diameter of 13-20 μm. The contralateral eye received an equal volume of PBS alone or PBS containing 12.6 ng VEGF164, and a 20-fold molar excess of PEDF (232 ng), ACT (278 ng), HSP47 (278 ng), PEDFpep (28.1 ng), ACTpep (29.7 ng), or CHIMERApep (28.2 ng).
Evans Blue assay. We used a modification of the method described by Qaum et al.^44 Briefly, each mouse received intravitreal injections of proteins or peptides, and intrajugular injection of Evans blue^44. After 2 hours, 200 μl blood was taken and assayed for Evans blue. The retina was extruded and dissected free from any vitreous or adherent retinal pigment epithelium.
To assess the Evans blue-albumin concentration, the optical density of the retinal extract and plasma samples were measured at 620 nm and 740 nm. The retinal vasopermeability was calculated as the quantity of retinal Evans blue normalized to retinal dry weight, plasma Evans blue concentration, and circulation time by using the formula as described^32,44. Since all animals in this report had 1 eye injected with VEGF alone, the retinal permeability in the VEGF injected eyes was normalized to the VEGF injected eye in the set of animals where 1 eye received PBS. The VEGF-induced increase in permeability was taken to be 100%.

[2] = system: VEGF-induced retinal vascular permeability; test: Fluorescein angiography after intravitreal co-injection with VEGF164; format: in vivo, mouse (C57BL/6J); settings: mouse eye, co-injected intravitreally with 12.6 ng VEGF164 at 20-fold molar excess; 20 h after injection; qualitative
Procedure: as §1
Fluorescein angiograghy. Twenty hours after intravitreal injections, each pupil was dilated with one drop of 1% atropine sulfate. After intraperitoneal injection of 0.1 ml of 25% fluorescein, successive retina photographs were taken with a Kowa Genesis camera. The first photograph was taken within 20 seconds of the intraperitoneal fluorescein injection. Time elapsed between the alternating right and left eye retinal photographs averages 10 seconds. Fluorescein leakage manifests as indistinct vascular borders progressing to diffusely hazy fluorescence.

[3] = system: VEGF164-stimulated bovine retinal capillary endothelial cell migration; settings: read-out: IC50, inhibition of VEGF-stimulated endothelial cell migration; BRCEC, VEGF164-stimulated, 8 hours at 37° C.
Procedure: BRCEC migration assay. Bovine retinal capillary endothelial cells (BRCEC) were isolated and cultured as described 45. […] Cells, between the fifth and ninth passage, were starved overnight in MEM with D-Val and 2% fetal bovine serum. Polycarbonate filters (10 μm pore-size, PVPF; Osmonics Inc., Minnetonka, Minn.) were coated with 100 μg/ml collagen. Quadruplicates with test samples in MEM D-Val (28 μl), and 10^4 cells in MEM D-Val (50 μl) were placed in the lower and upper wells, respectively, of the microchemotaxis chamber (NeuroProbe, Gaithersburg, Md.). After incubating 8 hours at 37° C., the non-migrated cells on the upper surface of the filter were removed, and the filters were stained with Harris' hematoxylin. For each of the test samples, one 400× field per quadrant of each of the quadruplicates was counted. From the total cell number in the 4 fields, the mean and standard error of the quadruplicate wells were calculated. Baseline migration equaled the number of migrated cells with MEM D-Val without any added proteins or peptides. The difference between baseline and the number of migrated cells with VEGF added equals maximal total migration.

Molecule | inhibition of VEGF-induced retinal vascular permeability (Evans blue-albumin) [1] [%] | effect on VEGF-induced fluorescein leakage / vascular permeability (fluorescein angiography) [2] | IC50 [3] [nM] | effect on VEGF-induced vascular permeability by Evans blue assay ([1]; qualitative statement)
HSP47: heat shock protein 47, collagen-specific chaperone protein from the serpin family, control protein (protein, UniProt P50454 19-418, looked up) Serpin H1: AEVKKPAAAAAPGTAEKLSPKAATLAERSAGLAFSLYQAMAKDQAVENILVSPVVVASSLGLVSLGGKATTASQAKAVLSAEQLRDEEVHAGLGELLRSLSNSTARNVTWKLGSRLYGPSSVSFADDFVRSSKQHYNCEHSKINFRDKRSALQSINEWAAQTTDGKLPEVTKDVERTDGALLVNAMFFKPHWDEKFHHKMVDNRGFMVTRSYTVGVMMMHRTGLYNYYDDEKEKLQIVEMPLAHKLSSLIILMPHHVEPLERLEKLLTKEQLKIWMGKMQKKAVAISLPKGVVEVTHDLQKHLAGLGLTEAIDKNKADLSRMSGKKDLYLASVFHATAFELDTDGNPFDQDIYGREELRSPKLFYADHPFIFLVRDTQSGSLLFIGRLVRPKGDKMRDEL | 19.4±22.3 | no effect | – | –
ACT: α1-antichymotrypsin, a classical serpin used as control protein (protein, UniProt P01011 24-423, looked up) Alpha-1-antichymotrypsin: HPNSPLDEENLTQENQDRGTHVDLGLASANVDFAFSLYKQLVLKAPDKNVIFSPLSISTALAFLSLGAHNTTLTEILKGLKFNLTETSEAEIHQSFQHLLRTLNQSSDELQLSMGNAMFVKEQLSLLDRFTEDAKRLYGSEAFATDFQDSAAAKKLINDYVKNGTRGKITDLIKDLDSQTMMVLVNYIFFKAKWEMPFDPQDTHQSRFYLSKKKWVMVPMMSLHHLTIPYFRDEELSCTVVELKYTGNASALFILPDQDKMEEVEAMLLPETLKRWRDSLEFREIGELYLPKFSISRDYNLNDILLQLGIEEAFTSKADLSGITGARNLAVSQVVHKAVLDVFEEGTEASAATAVKITLLSALVETRTIVRFNRPFLMIIVPTDTQNIFFMSKVTNPKQA | 3.4±18.2 | no effect | – | –
PEDF: Recombinant human pigment epithelium-derived factor, 418-amino acid 50-kDa glycoprotein, produced in 293 cells (SEQ ID NO: 1) (protein, listed as Homo sapiens, glycosylated) MQALVLLLCIGALLGHSSCQNPASPPEEGSPDPDSTGALVEEEDPFFKVPVNKLAAAVSNFGYDLYRVRSSMSPTTNVLLSPLSVATALSALSLGAEQRTESIIHRALYYDLISSPDIHGTYKELLDTVTAPQKNLKSASRIVFEKKLRIKSSFVAPLEKSYGTRPRVLTGNPRLDLQEINNWVQAQMKGKLARSTKEIPDELSLLLLGVAHFKGQWVTKFDSRKTSLEDFYLDEERTVRVPMMSDPKAVLRYGLDSDLSCKIAQLPLTGSMSLIFFLPLKVTQNLTLIEESLTSEFIHDIDRELKTVQAVLTVPKLKLSYEGEVTKSLQEMKLQSLFDSPDFSKITGKPIKLTQVEHRAGFEWNEDGAGTTPSPGLQPAHLTFPLDYHLNQPFIFVLRDTDTGALLFIGKILDPRGP | 95.6±21.2 | not observed; also recorded: inhibits | 0.5 | obliterated

Source: US20080293626A1, “Pigment epithelium-derived factor as a therapeutic agent for vascular leakage” (The Johns Hopkins University, priority 2003, published 2008)
